For assay [1], the target named is yeast-displayed human LIF (hLIF, Ser23 to Phe203) (human) (UniProt P15018). Briefly: flow cytometry on cells; LIF displayed on yeast (EBY100), soluble Fc fusion titrated in PBS with 1 mg/ml BSA, Fc detected with fluorescent secondary antibody; apparent Kd by non-linear regression.
Assay [2] deals with yeast surface-displayed human LIF (Ser23 to Phe203) (human) (UniProt P15018). Briefly: flow cytometry on cells; hLIF displayed on yeast, soluble Fc fusion titrated in PBS with 1 mg/ml BSA; bound Fc detected by fluorescent anti-Fc antibody; apparent Kd by non-linear regression.
Assay [3] has as its target recombinant human LIF, histidine-tagged (hLIF-His) (human) (UniProt P15018).
Assay [4] has the same target. Description: Kinetic Exclusion Assay (KinExA); both partners soluble; hLIF-His constant (100 pM for eLIFR-Fc, 250 pM for hLIFR-Fc), LIFR-Fc serially diluted, 18 h, BPBS with 0.02% sodium azide; free LIF-His captured on LIFR-Fc-coated PMMA beads; apparent Kd, n-curve analysis.

For three molecules, Kd and IC50 of inhibition of LIF (20 pM) signalling through LIFR/gp130 in HeLa STAT3 luciferase reporter cells results are on record in paper PMC8041770.

B1: C-terminal eLIFR-Fc fusion containing a (Glycine)4Serine linker (Fc fusion)
chain: GGGGSDLKCVTNNLQVWNCSWKAPSGTGRGTDYEVCIENRSRSCYQLEKTSIKIPALSHGDYEITINSLHDFGSSTSKFTLNEQNVSLIPDTPEILNLSADFSTSTLYLKWNDRGSVFPHRSNVIWEIKVLRKESMELVKLVTHNTTLNGKDTLHHWSWASDMPLECAIHFVEIRCYIDNLHFSGLEEWSDWSPVKNISWIPDSQTKVFPQDKVVPVGSDITFCCVSQEKVLSALIGRTNCPLIHLDGENVAIKVRNVSASASSGTNVVFITEDDIFGTVIFAGYPPDTPQQLNCETHDLKEIICSWNPGRVTALVGPRATSYTLVESFSGKYVRLKRAEAPTNESYQLLFQMLPNQEIYNFTLNAHNPLGRSQSTILVNITEKVYPHTPTSFKVKDINSTAVKLSWHLPGNFAKINFLCEIEIKKSNSVQEQRNVTIKGVENSSYLVALDKLNPYTLYTFRIRCSTETFWKWSKWSNKKQHLTTEAS
Consider B1, for which, in assay [1], the Kd turned out to be 0.02 nM.

B2: full-length eLIFR-Fc (Fc fusion)
chain: QKKGAPHDLKCVTNNLQVWNCSWKAPSGTGRGTDYEVCIENRSRSCYQLEKTSIKIPALSHGDYEITINSLHDFGSSTSKFTLNEQNVSLIPDTPEILNLSADFSTSTLYLKWNDRGSVFPHRSNVIWEIKVLRKESMELVKLVTHNTTLNGKDTLHHWSWASDMPLECAIHFVEIRCYIDNLHFSGLEEWSDWSPVKNISWIPDSQTKVFPQDKVVPVGSDITFCCVSQEKVLSALIGRTNCPLIHLDGENVAIKVRNVSASASSGTNVVFITEDDIFGTVIFAGYPPDTPQQLNCETHDLKEIICSWNPGRVTALVGPRATSYTLVESFSGKYVRLKRAEAPTNESYQLLFQMLPNQEIYNFTLNAHNPLGRSQSTILVNITEKVYPHTPTSFKVKDINSTAVKLSWHLPGNFAKINFLCEIEIKKSNSVQEQRNVTIKGVENSSYLVALDKLNPYTLYTFRIRCSTETFWKWSKWSNKKQHLTTEASPSKGPDTWREWSSDGKNLIIYWKPLPINEANGKILSYNVSCSSDEETQSLSEIPDPQHKAEIRLDKNDYIISVVAKNSVGSSPPSKIASMEIPNDDLKIEQVVGMGKGILLTWHYDPNMTCDYVIKWCNSSRSEPCLMDWRKVPSNSTETVIESDEFRPGIRYNFFLYGCRNQGYQLLRSMIGYIEELAPIVAPNFTVEDTSADSILVKWEDIPVEELRGFLRGYLFYFGKGERDTSKMRVLESGRSDIKVKNITDISQKTLRIADLQGKTSYHLVLRAYTDGGVGPEKSMYVVTKENSVGLIIAILIPVAVAVIVGVVTSILCYRKREWIKETFYPDIPNPE
Regarding B2, the Kd in assay [2] is 0.35 nM.

B3: hLIFR-Fc (wild-type human LIFR CBM I–Ig-like–CBM II fused to hIgG1 Fc) (Fc fusion)
chain: QKKGAPHDLKCVTNNLQVWNCSWKAPSGTGRGTDYEVCIENRSRSCYQLEKTSIKIPALSHGDYEITINSLHDFGSSTSKFTLNEQNVSLIPDTPEILNLSADFSTSTLYLKWNDRGSVFPHRSNVIWEIKVLRKESMELVKLVTHNTTLNGKDTLHHWSWASDMPLECAIHFVEIRCYIDNLHFSGLEEWSDWSPVKNISWIPDSQTKVFPQDKVILVGSDITFCCVSQEKVLSALIGHTNCPLIHLDGENVAIKIRNISVSASSGTNVVFTTEDNIFGTVIFAGYPPDTPQQLNCETHDLKEIICSWNPGRVTALVGPRATSYTLVESFSGKYVRLKRAEAPTNESYQLLFQMLPNQEIYNFTLNAHNPLGRSQSTILVNITEKVYPHTPTSFKVKDINSTAVKLSWHLPGNFAKINFLCEIEIKKSNSVQEQRNVTIKGVENSSYLVALDKLNPYTLYTFRIRCSTETFWKWSKWSNKKQHLTTEAS
B3: the IC50 of inhibition of LIF (20 pM) signalling through LIFR/gp130 in HeLa STAT3 luciferase reporter cells in assay [3] stood at 1.8 nM. Moreover, the Kd in assay [4] stood at 1.1 nM.
